Assay results as given in PMC10250233.
“And” between values parts separate entries of the source, which are not always exact repeats. Identical values can stand only once.

Columns and labels:
Experiment in all cases: fluorescence anisotropy
RPA Aro4 (human) = conditions: FA: 200 mM NaCl, KCl or LiCl, 20 mM HEPES pH 7.4, 1 mM DTT, 22-25 C, 375 or 750 pM oligo, Kd,app +/- SEM; EMSA: 20 mM HEPES pH 7.4, 200 mM KCl, 1 nM 32P oligo
[1] = biological target: CST (CTC1-STN1-TEN1) (human) (UniProt Q2NKJ3+Q9H668+Q86WV5); conditions: FA: 200 mM NaCl, KCl or LiCl, 20 mM HEPES pH 7.4, 1 mM DTT, 22-25 C, 375 or 750 pM oligo, Kd,app +/- SEM, EMSA: 20 mM HEPES pH 7.4, 200 mM KCl, 1 nM 32P oligo
RPA Aro1 (human) = conditions: FA: 200 mM NaCl, KCl or LiCl, 20 mM HEPES pH 7.4, 1 mM DTT, 22-25 C, 375 or 750 pM oligo, Kd,app +/- SEM; EMSA: 20 mM HEPES pH 7.4, 200 mM KCl, 1 nM 32P oligo
RPA AroA (human) = conditions: FA: 200 mM NaCl, KCl or LiCl, 20 mM HEPES pH 7.4, 1 mM DTT, 22-25 C, 375 or 750 pM oligo, Kd,app +/- SEM; EMSA: 20 mM HEPES pH 7.4, 200 mM KCl, 1 nM 32P oligo
RPA Aro3 (human) = conditions: FA: 200 mM NaCl, KCl or LiCl, 20 mM HEPES pH 7.4, 1 mM DTT, 22-25 C, 375 or 750 pM oligo, Kd,app +/- SEM; EMSA: 20 mM HEPES pH 7.4, 200 mM KCl, 1 nM 32P oligo
RPA AroB (human) = conditions: FA: 200 mM NaCl, KCl or LiCl, 20 mM HEPES pH 7.4, 1 mM DTT, 22-25 C, 375 or 750 pM oligo, Kd,app +/- SEM; EMSA: 20 mM HEPES pH 7.4, 200 mM KCl, 1 nM 32P oligo
[2] = biological target: RPA WT (RPA70-RPA32-RPA14) (human) (UniProt P27694+P15927+P35244); conditions: FA: 200 mM NaCl, KCl or LiCl, 20 mM HEPES pH 7.4, 1 mM DTT, 22-25 C, 375 or 750 pM oligo, Kd,app +/- SEM; EMSA: 20 mM HEPES pH 7.4, 200 mM KCl, 1 nM 32P oligo
RPA AroC (human) = conditions: FA: 200 mM NaCl, KCl or LiCl, 20 mM HEPES pH 7.4, 1 mM DTT, 22-25 C, 375 or 750 pM oligo, Kd,app +/- SEM; EMSA: 20 mM HEPES pH 7.4, 200 mM KCl, 1 nM 32P oligo

Sequence of RPA WT (RPA70-RPA32-RPA14) (human) (P27694 whole entry, chain 1 of 3): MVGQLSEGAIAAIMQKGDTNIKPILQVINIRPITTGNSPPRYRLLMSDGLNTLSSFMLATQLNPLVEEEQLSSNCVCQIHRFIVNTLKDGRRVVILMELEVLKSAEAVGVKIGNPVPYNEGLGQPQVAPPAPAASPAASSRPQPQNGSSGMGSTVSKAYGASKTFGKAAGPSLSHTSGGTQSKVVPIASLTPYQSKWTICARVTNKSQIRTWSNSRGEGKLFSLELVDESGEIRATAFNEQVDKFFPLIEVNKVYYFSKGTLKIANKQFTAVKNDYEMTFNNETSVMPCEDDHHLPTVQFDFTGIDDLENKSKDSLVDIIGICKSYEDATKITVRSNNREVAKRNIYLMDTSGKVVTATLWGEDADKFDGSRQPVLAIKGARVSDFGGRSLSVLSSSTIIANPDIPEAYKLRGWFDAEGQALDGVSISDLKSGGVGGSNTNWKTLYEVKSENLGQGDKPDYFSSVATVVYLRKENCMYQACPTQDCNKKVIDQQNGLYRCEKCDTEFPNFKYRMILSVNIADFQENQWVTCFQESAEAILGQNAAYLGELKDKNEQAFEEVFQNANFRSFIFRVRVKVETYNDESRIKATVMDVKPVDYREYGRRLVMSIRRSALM
Sequence of RPA WT (RPA70-RPA32-RPA14) (human) (P15927 whole entry, chain 2 of 3): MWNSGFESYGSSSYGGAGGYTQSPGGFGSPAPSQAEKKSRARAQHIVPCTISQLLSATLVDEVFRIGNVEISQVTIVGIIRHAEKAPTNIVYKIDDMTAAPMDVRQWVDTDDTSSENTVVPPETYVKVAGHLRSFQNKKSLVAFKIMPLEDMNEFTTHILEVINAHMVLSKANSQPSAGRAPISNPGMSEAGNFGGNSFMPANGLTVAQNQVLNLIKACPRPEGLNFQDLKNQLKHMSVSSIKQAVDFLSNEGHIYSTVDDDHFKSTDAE
Sequence of RPA WT (RPA70-RPA32-RPA14) (human) (P35244 whole entry, chain 3 of 3): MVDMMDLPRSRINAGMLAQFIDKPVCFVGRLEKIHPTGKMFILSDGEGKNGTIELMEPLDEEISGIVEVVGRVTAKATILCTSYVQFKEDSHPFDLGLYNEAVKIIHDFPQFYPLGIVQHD
Sequence of CST (CTC1-STN1-TEN1) (human) (Q2NKJ3 whole entry, chain 1 of 3): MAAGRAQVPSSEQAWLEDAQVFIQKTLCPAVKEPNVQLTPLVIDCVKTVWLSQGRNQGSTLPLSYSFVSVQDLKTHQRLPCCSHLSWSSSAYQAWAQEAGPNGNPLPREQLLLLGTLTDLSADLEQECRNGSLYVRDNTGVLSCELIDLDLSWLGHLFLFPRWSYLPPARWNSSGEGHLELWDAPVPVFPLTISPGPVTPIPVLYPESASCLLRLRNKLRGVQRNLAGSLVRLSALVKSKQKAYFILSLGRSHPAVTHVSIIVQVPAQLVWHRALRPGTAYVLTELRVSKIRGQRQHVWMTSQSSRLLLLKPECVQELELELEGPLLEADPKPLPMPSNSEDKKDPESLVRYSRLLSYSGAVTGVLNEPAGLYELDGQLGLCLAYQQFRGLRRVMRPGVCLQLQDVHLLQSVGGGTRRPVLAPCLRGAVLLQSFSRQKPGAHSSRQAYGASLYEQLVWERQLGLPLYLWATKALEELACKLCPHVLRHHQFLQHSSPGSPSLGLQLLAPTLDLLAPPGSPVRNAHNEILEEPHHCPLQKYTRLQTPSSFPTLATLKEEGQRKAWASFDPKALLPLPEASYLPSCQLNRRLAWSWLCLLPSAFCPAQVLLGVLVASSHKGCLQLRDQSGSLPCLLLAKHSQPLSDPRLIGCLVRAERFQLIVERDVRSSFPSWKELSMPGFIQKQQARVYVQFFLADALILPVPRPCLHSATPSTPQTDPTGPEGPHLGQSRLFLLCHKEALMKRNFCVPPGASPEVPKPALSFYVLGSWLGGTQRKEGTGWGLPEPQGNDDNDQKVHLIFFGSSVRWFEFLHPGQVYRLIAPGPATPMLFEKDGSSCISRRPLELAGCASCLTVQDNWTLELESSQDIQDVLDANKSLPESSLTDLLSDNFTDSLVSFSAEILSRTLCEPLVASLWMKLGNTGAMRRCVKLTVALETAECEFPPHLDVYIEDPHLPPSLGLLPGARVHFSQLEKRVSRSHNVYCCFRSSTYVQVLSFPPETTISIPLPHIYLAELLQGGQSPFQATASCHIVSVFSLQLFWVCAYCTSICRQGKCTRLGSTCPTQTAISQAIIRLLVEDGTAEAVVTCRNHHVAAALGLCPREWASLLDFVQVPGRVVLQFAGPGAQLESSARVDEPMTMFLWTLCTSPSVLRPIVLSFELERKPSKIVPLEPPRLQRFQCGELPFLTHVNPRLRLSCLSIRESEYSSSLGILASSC
Sequence of CST (CTC1-STN1-TEN1) (human) (Q9H668 whole entry, chain 2 of 3): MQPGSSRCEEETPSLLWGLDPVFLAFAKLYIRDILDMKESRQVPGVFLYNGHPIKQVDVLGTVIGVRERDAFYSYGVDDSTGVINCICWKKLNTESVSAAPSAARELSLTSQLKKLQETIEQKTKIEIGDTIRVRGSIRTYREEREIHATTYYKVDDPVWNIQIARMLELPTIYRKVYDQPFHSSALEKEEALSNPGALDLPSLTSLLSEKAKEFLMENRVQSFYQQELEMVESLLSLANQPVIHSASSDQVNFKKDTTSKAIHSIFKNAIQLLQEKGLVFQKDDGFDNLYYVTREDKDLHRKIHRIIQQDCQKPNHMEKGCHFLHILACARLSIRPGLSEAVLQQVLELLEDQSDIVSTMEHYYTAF
Sequence of CST (CTC1-STN1-TEN1) (human) (Q86WV5 whole entry, chain 3 of 3): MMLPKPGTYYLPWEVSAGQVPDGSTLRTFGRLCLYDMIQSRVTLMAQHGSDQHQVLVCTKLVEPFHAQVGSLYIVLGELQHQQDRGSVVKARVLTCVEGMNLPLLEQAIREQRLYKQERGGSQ

| Substance | Kd (RPA Aro4 (human)) | Kd ([1]; 200 mM LiCl) [nM] | Kd [1] | Kd (RPA Aro1 (human)) | Kd (RPA AroA (human)) | Kd (RPA Aro3 (human)) | Kd (RPA AroB (human)) | Kd [2] | Kd (RPA AroC (human)) | Kd ([1]; 200 mM KCl, printed >=, incomplete curve) [nM] |
| --- | --- | --- | --- | --- | --- | --- | --- | --- | --- | --- |
| Tel18 | 3.5 nM and 9.1 nM and 5.1 nM | 6.7 | 7.7 nM and 9.3 nM | 4.7 nM and 2.5 nM and 5.6 nM | 0.79 nM and 0.34 nM and 0.36 nM | 0.24 nM and 0.56 nM and 0.65 nM | 0.5 nM and 0.66 nM and 0.45 nM | 0.73 nM and 0.5 nM and 0.66 nM | 0.59 nM and 0.26 nM and 0.49 nM | – |
| Tel22 | – | 6.7 | 106 nM | – | 2.4 nM and 2.5 nM and 0.36 nM | – | – | 1.23 nM and 1.99 nM and 0.35 nM | – | > 340 |
| Tel30 | – | 5.2 | 67 nM and 112 nM | – | 0.48 nM and 0.77 nM and 0.29 nM | – | 1.07 nM and 1.9 nM and 0.36 nM | 0.96 nM and 0.81 nM and 0.32 nM | 0.62 nM and 1.62 nM and 0.28 nM | – |
| Tel40 | – | 0.73 | 0.74 nM and 1.1 nM | – | – | – | – | 1.3 nM and 1.1 nM and 0.9 nM | – | – |
| Tel60 | – | 1.2 | 10.6 nM and 9 nM | – | – | – | – | 0.79 nM and 0.69 nM and 0.8 nM | – | – |
